Experimental data taken from patent publication US20240083996A1, “COMPOSITION FOR PROPHYLAXIS OR TREATMENT OF IL-8 RELATED DISEASES” (Chugai Seiyaku Kabushiki Kaisha, priority 2016, published 2024).

Experiments:
Assay type in all cases: in vivo, cynomolgus monkeys
[1] = test system: endometriosis nodular lesions and adhesion
Text: Female cynomolgus monkeys of 8 to 14 years of age with regular sexual cycle (provided by the Tsukuba Primate Research Center at the National Institutes of Biomedical Innovation, Health and Nutrition) were laparotomized under anesthesia during the period corresponding to the luteal phase. The uterine corpus was removed by dissecting in a V shape. Then, the uterine corpus was cut into 5 to 10 mm cubes while leaving the smooth muscle layer of the uterus, and one and two pieces were transplanted onto the right abdominal wall and left abdominal wall (cranial and caudal sides), respectively, in such a manner that the endometrium part is in contact with the peritoneum by suturing with an absorbable suture and formed the transplant. After excision, the uterus was sutured with absorbable suture. Then, the remaining endometrial tissues were finely cut and suspended in 5 ml of 2 ng/ml Hepatocyte Growth Factor solution (R&D systems), and this was seeded in the peritoneal cavity for transplantation, followed by closure of the abdomen. Anesthesia was performed using balanced anesthesia of ketamine/xylazine (mixed at an adequate ratio of about 2:1); however, anesthesia was maintained with isoflurane depending on the maintenance period of anesthesia. The body temperature was maintained and controlled during surgery using a heating pad and the condition was monitored electrocardiographically. The antagonist Antisedan (at roughly the same amount as that of xylazine) and antibiotic cephradine were administered at the time of awakening after surgery. The pain reliever Zalban was administered for two days after surgery, and the monkeys were observed regularly every day to confirm the absence of post-surgical abnormalities. In laparoscopic observation, anesthesia and post-surgical monitoring were also performed in the same way.
Laparoscopic observation was carried out four months, nine months (3 months after administration), and 12 months (6 months after administration) following the surgical induction of endometriosis described above, and the pathological conditions of endometriosis were assessed as follows.
The abdomen was incised in the median line under anesthesia, and laparoscopic observation was performed by inserting a trocar and then introducing a laparoscope. The laparoscope was connected to a video system (KARL STORZ) and a monitor. The monitor was used for intraperitoneal observation, and the video system was used for recording. Then, the peritoneal cavity was filled with carbon dioxide gas using Intra-abdominal Insufflation Unit (OLYMPUS) to expand the abdomen, and graduated bars and forceps were inserted from the ventral portion. The size of the lesion was measured using the graduated bar or graduated forceps.
The sizes (width, height, and depth) of nodular lesions formed by suturing the endometrial tissues were measured and the volumes were calculated based on: width (mm)×height (mm)×depth (mm). The lesions and adhesion formed by seeding endometrial tissues after fine cutting were assessed for the site, area, and depth of adhesion and the size of lesion by laparoscopic observation based on modified r-AFS score modified for monkeys from the r-AFS score for clinical use. […] The item on adhesion to the vesicouterine pouch was added, because in the monkey model, the frequency of adhesion to the urinary bladder is higher than in humans. The method for assessing adhesion to the urinary bladder was the same scoring as that used for adhesion to the Douglas' pouch. • 2. Since monkey's body and organ sizes are smaller than those of humans, the criteria of lesion size scoring were altered to: <3 mm, 3-10 mm, and >10 mm.
Based on the results of laparoscopic observation four months after induction, the individuals that met the criteria were selected and grouped. The criteria for the selection are as follows: • 1. Engraftment of endometrial transplant confirmed on the laparoscopic observation four months after induction. • 2. […]

adenomyosis lesions = experiment: Adenomyosis complication in surgically-induced endometriosis monkey models; conditions: one case per group, compared to the vehicle group (FIG. 37)
Text: After the final laparoscopic observation six months after the start of antibody administration in surgically-induced endometriosis monkey models, the uteri collected during autopsy were fixed with 10% neutral buffered formalin and HE-stained for observation. Endometrial tissues analogous to those of adenomyosis were strongly seen in the uterus in one case of the vehicle group as well as in one case of the antibody administration group. […] Thus, the monkeys were considered as being a human adenomyosis complication model, and the endometrial tissues in the myometria of these single cases were compared.

post-surgical adhesion = experiment: Post-surgical adhesion-induced monkey model; set-up: key: ○: Adhesion found; x: No adhesion; conditions: 10 mg/kg i.v. one hour or less after surgery, laparoscopy 24 to 35 days later; individuals #201, #206
Procedure: To prepare a post-surgical adhesion-induced model, female cynomolgus monkeys 9 to 16 years of age (provided by the Tsukuba Primate Research Center at the National Institutes of Biomedical Innovation, Health and Nutrition) were treated under anesthesia as follows. Anesthesia was performed using balanced anesthesia of ketamine/xylazine (mixed at an adequate ratio of about 2:1) and isoflurane. An incision of 5 to 6 cm was made in the median line of the abdominal wall. After opening the abdomen, a 1-cm incision was made on the uterine corpus and sutured with 4 stitches using a single suture. Then, the whole uterus was brushed five times with gauze. Next, a 1-cm incision was made to the right abdominal wall peritoneal part at 2 cm from the incised median line of the abdominal wall and sutured by running suture with 4 stitches using an absorbable suture. After suture, the sutured part was brushed five times with gauze. Likewise, the peritoneum of left abdominal wall was incised, sutured, and brushed with gauze. Finally, the median line of abdominal wall was sutured by running suture with 10 to 11 stitches. The entire steps were completed in one hour or less. The antagonist Antisedan (in roughly the same amount as that of xylazine) and the antibiotic cephradine were administered at the time of awakening after surgery. Then, the pain reliever Zalban was administered for two days after surgery, and the monkeys were observed regularly every day to confirm the absence of post-surgical abnormalities. At laparoscopic observation, anesthesia and post-surgical monitoring were also performed in the same way.
The control group was untreated. 24 to 35 days after administration of the anti-IL-8 antibody, laparoscopy was performed to observe the adhesion formed due to incision, suture, and blushing with gauze. The abdomen was incised in the median line under anesthesia, and laparoscopic observation was performed by inserting a trocar and then introducing a laparoscope. The laparoscope was connected to a video system (KARL STORZ) and a monitor. The video system was used for recording, and the monitor was used for intraperitoneal observation. The size of the adhesion was measured using a graduated bar or graduated forceps. The presence, range, and location of adhesion were assessed during laparoscopic observation. […] Although adhesion was found in individual No. 206 in the anti-IL-8 antibody administration group, no adhesion was found in the right and left abdominal wall peritoneum or at the uterine incision site in individual No. 201. […] Those skilled in the art will naturally appreciate that anti-IL-8 antibodies may exert a stronger adhesion formation-preventive effect by appropriately altering the timing of administration or such. […]

[2] = 10 mg/kg i.v. q4w, six months of administration
[3] = Table 26, proliferation lesion, per nodular lesion (animals 112, 105, 106, 121, 119, 123; sites R, L1, L2), 10 mg/kg

B1: H1009/L395-F1974m: H1009-F1974m (SEQ ID NO:36) heavy chain, L395-kOMT light chain; the anti-IL-8 antibody of Table 29 (antibody)
heavy: QVQLVESGGGLVQPGGSLRLSCAASGFTFSDYYLSWVRQAPGKGLEWVGLIRNKDNYHTPEYSASVKGRFTISRDDSKNSLYLTMSDLKTEDTAVYYCARENHRYDVELAYWGQGTLVTVSSASTKGPSVFPLAPSSKSTSGGTAALGCLVKDYFPEPVTVSWNSGALTSGVHTFPAVLQSSGLYSLSSVVTVPSSSLGTQTYICNVNHKPSNTKVDKKVEPKSCDKTHTCPPCPAPELRRGPSVFLFPPKPKDTLMISRTPEVTCVVVDVSHEDPEVKFNWYVDGVEVHNAKTKPREEQYNSTYRVVSVLTVLHQDWLNGKEYKCKVSNKGLPSSIEKTISKAKGQPREPQVYTLPPSREEMTKNQVSLTCLVKGFYPSDIAVEWESNGQPENNYKTTPPVLDSDGSFFLYSKLTVDKSRWQQGNVFSCSVLHEALHAHTTRKELSLSP
light: DIQMTQSPSSLSASVGDRVTITCRASEIIYSYLAWYQQKPGKAPKLLIYKAKTHADGVPSRFSGSGSGTDFTFTISSLQPEDIATYYCKHHFGFPRTFGQGTKVEIKRTVAAPSVFIFPPSDEQLKSGTASVVCLLNNFYPREAKVQWKVDNALQSGNSQESVTEQDSKDSTYSLSSTLTLSKADYEKHKVYACEVTHQGLSSPVTKSFNRGEC
- frequency of nodular lesions of type A: proliferative, ≥500 mm3 [1, 2]: 0%
- frequency of nodular lesions of type B: proliferative, <500 mm^3 [1, 2]: 8%
- frequency of nodular lesions of type C: no change [1, 2]: 33%
- frequency of nodular lesions of type D: decreased [1, 2]: 58%
- number of nodular lesions of type A: proliferative, ≥500 mm3 / lesions analysed [1, 2]: (0/12)
- number of nodular lesions of type B: proliferative, <500 mm^3 / lesions analysed [1, 2]: (1/12)
- number of nodular lesions of type C: no change / lesions analysed [1, 2]: (4/12)
- number of nodular lesions of type D: decreased / lesions analysed [1, 2]: 7/12 and (7/12)
- Atrophy/decrease, stromal cell (P) [1, 3]: ±
- Decreased insterstitium (P) [1, 3]: ±
- change of size r-AFS score ([1]; after minus before administration, versus vehicle group (FIG. 35-1)): tended to decrease
- change of total r-AFS score ([1]; after minus before administration, versus vehicle group, p=0.0070 (FIG. 35-1)): clearly decreased as compared to the vehicle group
- change of adhesion score ([1]; after minus before administration, versus vehicle group, p=0.0096 (FIG. 35-1)): clearly decreased as compared to the vehicle group
- frequency of deep lesions (endometriosis gland ducts invaded up to the muscle layer of abdominal wall) ([1]; anti-antibody-positive individuals excluded, vehicle group 5/18 lesions): 1/11
- muscle tissue regeneration ([1]; autopsy): muscle tissue regeneration, which was not seen in the vehicle group, was observed
- histopathology of the grafts and grafted sites (HE staining) ([1]; autopsy after final laparoscopic observation, compared to the vehicle group): atrophic changes of proliferative epithelia and stromal cells as well as reduction of the interstitium whose major component is collagenous fibers was observed
- number of lesions with hemosiderin / lesions ([1]; autopsy, vehicle group 9/16): 4/17
- frequency of lesions with hemosiderin ([1]; autopsy, vehicle group 56%): 24%
- total modified r-AFS score before and after administration ([1]; scores recorded during laparoscopic surgery, Wilcoxon's signed-rank-sum test, P=0.875 (FIG. 35-2)): the score did not change
- histopathology of adenomyosis lesions in the uterus (HE staining) (adenomyosis lesions): atrophy of endometrial epithelia in the adenomyosis lesions as well as reduction and atrophy of stromal cells were observed
- adhesion at incision site: Abdominal wall Median line (post-surgical adhesion): ○
- adhesion at incision site: Peritoneum (L) (post-surgical adhesion): ○ and x
- adhesion at incision site: Peritoneum (R) (post-surgical adhesion): ○ and x
- adhesion at incision site: Uterus (post-surgical adhesion): ○ and x
